{
  "source": "patent US20220226425A1",
  "about": "“METHOD OF TREATING MELANOCORTIN-4 RECEPTOR PATHWAY-ASSOCIATED DISORDERS” (RHYTHM PHARMACEUTICALS, INC., priority 2015, published 2022)",
  "target": "melanocortin 5 receptor (human) (UniProt P33032)",
  "sequence (P33032 whole entry)": "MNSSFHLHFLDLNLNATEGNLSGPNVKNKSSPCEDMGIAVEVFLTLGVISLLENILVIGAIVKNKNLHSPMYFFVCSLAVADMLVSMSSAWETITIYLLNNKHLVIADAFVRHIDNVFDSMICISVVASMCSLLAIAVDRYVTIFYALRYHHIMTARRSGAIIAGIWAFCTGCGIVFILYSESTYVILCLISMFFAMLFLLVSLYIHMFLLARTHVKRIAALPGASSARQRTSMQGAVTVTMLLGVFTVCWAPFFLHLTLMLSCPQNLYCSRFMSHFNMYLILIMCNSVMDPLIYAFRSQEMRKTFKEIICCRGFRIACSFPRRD",
  "assay": "cell-based or functional assay",
  "data": [
    {"substance": "RM-493 (peptide)", "values": [
      {"measurement": "EC-50 (nM), cAMP accumulation", "value": 1680, "unit": "nM"}
    ]}
  ]
}
